According to publication PMC11503491 (ACS Central Science, 2024):

B1: C022 (antibody, V domains shown)
VH: QVQLQESGPGLVKPSETLSVTCTVSGGSISSSRYYWGWIRQPPGKGLEWIGSIYYSGSTYYNPSLKSRVTISVDTSKNQFSLKLSSVTAADTAVYYCARHAAAYYDRSGYYFIEYFQHWGQGTLVTVSS
VL: DIQMTQSPSTLSASVGDSVTITCRASQSISSWLAWYQQKPGKAPKLLIYKASSLESGVPSRFSGSGSGTEFTLTISSLQPDDFATYYCQQYNNYRYTFGQGTKLEIK
notes: also called S2X259-like class 4 antibody
B2: 1-16 (antibody, V domains shown)
VH: QVQLVQSGAEVKKPGASVKVSCKASGYTFTSYYMHWVRQAPGQGLEWMGIINSSGGSTSYAQKFQGRVTMTRDTSTSTVYMELSSLRSEDTAVYYCARPPRNYYDRSGYYQRAEYFQHWGQGTLVTVSS
VL: DIQLTQSPSSLSASVGDRVTITCQASQDISNYLNWYQQRPGKAPKLLIYDASNLETGVPSRFSGSGSGTDFTFTISSLQPEDIATYYCQQYDNPPLTFGGGTKLEIK
notes: as for B1
B3: S2X259 IgG (antibody, V domains shown)
VH: QVQLVQSGAEVKKPGSSVKVSCKASGGIFNTYTISWVRQAPGQGLEWMGRIILMSGMANYAQKIQGRVTITADKSTSTAYMELTSLRSDDTAVYYCARGFNGNYYGWGDDDAFDIWGQGTLVTVYS
VL: QTVLTQPPSVSGAPGQRVTISCTGSNSNIGAGYDVHWYQQLPGTAPKLLICGNSNRPSGVPDRFSGSKSGTSASLAITGLQAEDEADYYCQSYDSSLSGPNWVFGGGTKLTVL
notes: also called class 4 mAb
B4: fragment antigen-binding region (Fab) of S2X259 (Fab, V domains shown)
VH: B3 VH
VL: B3 VL
notes: also called S2X259 Fab
B5: CR3022 (class 4 RBD-directed antibody) (antibody, V domains shown)
VH: QMQLVQSGTEVKKPGESLKISCKGSGYGFITYWIGWVRQMPGKGLEWMGIIYPGDSETRYSPSFQGQVTISADKSINTAYLQWSSLKASDTAIYYCAGGSGISTPMDVWGQGTTVTVSS
VL: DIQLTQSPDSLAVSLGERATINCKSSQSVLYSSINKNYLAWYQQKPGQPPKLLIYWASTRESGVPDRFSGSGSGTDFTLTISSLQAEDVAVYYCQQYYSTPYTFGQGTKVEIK
notes: IgG
B6: CR3022 (antibody, V domains shown)
VH: B5 VH
VL: not shown
notes: also called class 4 antibody
B7: C002 (antibody, V domains shown)
VH: EVQLVESGGGVVQPGRSLRLSCAASGFTFSIYGMHWVRQAPGKGLEWVAVISYDGSNKYYADSVKGRFTISRDNSKNTLYLQMNSLRAEDTAVYYCAKEGRPSDIVVVVAFDYWGQGTLVTVSS
VL: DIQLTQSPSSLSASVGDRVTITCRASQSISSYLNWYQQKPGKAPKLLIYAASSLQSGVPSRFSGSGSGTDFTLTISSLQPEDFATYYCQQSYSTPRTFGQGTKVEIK
B8: SA55 (antibody, V domains shown)
VH: QVQLVQSGAEVKKPGSSVKVSCKASGGTFRSHVISWVRQAPGQGLEWMGGFIPLFGTTIYAQAFQGRVMISADESTSTAYMELSSLRSEDTAVYFCARLFPNGDPNSPEDGFDIWGQGTLVTVSS
VL: DIQMTQSPSSLSASVGDRVTITCQASQDIGNYLNWYQQKPGKAPKLLIYDASHLETGVPSRFSGSGSGTDFTFTISSLQPEDIATYYCQRYDDLPSYTFGQGTKVEIK
notes: as for B1
B9: COVA2-15 (antibody, V domains shown)
VH: QVQLLESGGGLVQPGGSLRLSCAASGFTFSSYAMSWVRQAPGKGLEWASAISGSGGSTYYADSVEGRFTISRDNSKNTLYLQMNSLRAEDTAVYYCAKDTGYCGDDCYIKLIRGGPDYWGQGTLVTVSS
VL: DIVMTQSPLSLPVTLGQPASISCRSSQSLVYSDGNTFLNWFQQRPGQSPRRLIYQVSNRDSGVPDRFSGSGSGTDFTLKISRVEAEDVGVYYCMQGTHWPRTFGQGTKLEIK
notes: also called class 2 antibody
B10: CB6 (class 1 RBD-directed antibody) (antibody, V domains shown)
VH: EVQLVESGGGLVQPGGSLRLSCAASGFTVSSNYMSWVRQAPGKGLEWVSVIYSGGSTFYADSVKGRFTISRDNSMNTLFLQMNSLRAEDTAVYYCARVLPMYGDYLDYWGQGTLVTVSS
VL: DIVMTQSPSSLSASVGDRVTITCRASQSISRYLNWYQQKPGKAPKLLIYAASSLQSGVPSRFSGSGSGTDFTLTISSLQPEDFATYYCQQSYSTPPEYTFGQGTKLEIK
B11: CB6 (antibody, V domains shown)
VH: B10 VH
VL: not shown

Assays:
[1] = target: wild-type SARS-CoV-2 Wuhan Hu-1 receptor-binding domain (residues 319-533) (SARS-CoV-2 Wuhan-Hu-1); experiment: BLI; conditions: both partners purified
[2] = target: SARS-CoV-2 RBD (RWT), wild-type Wuhan Hu-1 receptor-binding domain, residues 319-533 (SARS-CoV-2 Wuhan Hu-1); experiment: BLI; conditions: both partners purified

Row | Binder | binding result [1] | also measured
1 | B1 | binds | –
2 | B2 | binds | –
3 | B3 | – | koff [1]: 0.0011 s⁻¹
4 | B4 | – | Kd [1]: 0.97 ± 0.5 nM
5 | B5 | – | koff [2]: 0.016 s⁻¹
6 | B6 | binds | –
7 | B7 | binds | –
8 | B8 | binds | –
9 | B9 | binds | –
10 | B10 | – | koff [2]: 0.013 s⁻¹
11 | B11 | binds | –
